Results on 15 molecules are retold here after patent US20140050727A1 (MOCHIDA PHARMACEUTICAL, published 2014).

What all share (assay): cell-based or functional assay
Test [1] concerns the target T1, Elastase, Human Neutrophil (human, UniProt P08246 30-247, limits assumed).
T1 sequence (looked up): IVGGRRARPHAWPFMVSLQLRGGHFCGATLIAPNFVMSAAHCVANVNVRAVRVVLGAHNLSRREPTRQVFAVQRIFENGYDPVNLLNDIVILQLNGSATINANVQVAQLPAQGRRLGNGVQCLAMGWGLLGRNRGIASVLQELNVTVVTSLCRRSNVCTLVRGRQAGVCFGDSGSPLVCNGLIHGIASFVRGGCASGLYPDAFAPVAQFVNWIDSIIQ

The target in a further test is T2, human CD14 (human, UniProt P08571 20-375, limits assumed).
T2 sequence (looked up): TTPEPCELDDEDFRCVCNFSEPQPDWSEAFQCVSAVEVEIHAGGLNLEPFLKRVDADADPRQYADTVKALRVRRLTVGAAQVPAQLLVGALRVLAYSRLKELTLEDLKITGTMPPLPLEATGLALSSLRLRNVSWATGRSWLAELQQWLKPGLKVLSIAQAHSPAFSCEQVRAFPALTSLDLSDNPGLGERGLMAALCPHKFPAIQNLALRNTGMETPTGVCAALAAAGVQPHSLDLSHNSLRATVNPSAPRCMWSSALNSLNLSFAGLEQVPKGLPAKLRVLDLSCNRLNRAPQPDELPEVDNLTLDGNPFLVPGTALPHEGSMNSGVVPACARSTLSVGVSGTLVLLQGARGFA

The target in another test is Human Factor Xa (human, UniProt P00742 41-488, limits assumed).
Chain of Human Factor Xa (P00742 41-488 limits assumed): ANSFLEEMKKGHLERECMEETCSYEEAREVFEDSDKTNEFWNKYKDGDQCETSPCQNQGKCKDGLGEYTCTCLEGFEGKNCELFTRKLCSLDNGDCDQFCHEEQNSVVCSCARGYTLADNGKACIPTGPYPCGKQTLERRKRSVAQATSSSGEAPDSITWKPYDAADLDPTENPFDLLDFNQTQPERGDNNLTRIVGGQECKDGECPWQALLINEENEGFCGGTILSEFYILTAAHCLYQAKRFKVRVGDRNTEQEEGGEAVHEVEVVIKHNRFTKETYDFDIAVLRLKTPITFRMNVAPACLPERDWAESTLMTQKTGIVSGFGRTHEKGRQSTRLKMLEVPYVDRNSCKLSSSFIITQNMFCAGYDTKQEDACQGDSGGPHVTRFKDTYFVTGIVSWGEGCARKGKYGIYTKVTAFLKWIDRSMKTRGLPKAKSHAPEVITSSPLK

Substitutions are numbered along the chain they refer to. In names and notes the source's numbering stands.

B1: F1024S-SLPI(D2) with modified linker GSGGGGSGGGGSGGGGS (antibody)
heavy: QIQLVQSGPELKKPGESVKISCKASGYTFTDYAMNWVKQAPGNGLKWMGWINTQTGKPTYADDFKQRFVFSLETSASTAYLQINNLNIEDTATYFCTRSTFYYSSYIYGWYFDFWGPGTMVTVSSASTKGPSVFPLAPCSRSTSESTAALGCLVKDYFPEPVTVSWNSGALTSGVHTFPAVLQSSGLYSLSSVVTVPSSSLGTKTYTCNVDHKPSNTKVDKRVESKYGPPGPSGPAPEFLGGPSVFLFPPKPKDTLMISRTPEVTCVVVDVSQEDPEVQFNWYVDGVEVHNAKTKPREEQFNSTYRVVSVLTVLHQDWLNGKEYKCKVSNKGLPSSIEKTISKAKGQPREPQVYTLPPSQEEMTKNQVSLTCLVKGFYPSDIAVEWESNGQPENNYKTTPPVLDSDGSFFLYSRLTVDKSRWQEGNVFSCSVMHEALHNHYTQKSLSLSLGKGSGGGGSGGGGSGGGGSRRKPGKCPVTYGQCLMLNPPNFCEMDGQCKRDLKCCMGMCGKSCVSPVKA
light: DIVMTQSPTSISISVGERVTMNCKASQNVGSNVDWYQQKTGQSPKLLIYKASNRYTGVPDRFTGSGSGTDFTFTISNMQAVDLAVYYCMQSNTNPPWTFGGGTKLELKRTVAAPSVFIFPPSDEQLKSGTASVVCLLNNFYPREAKVQWKVDNALQSGNSQESVTEQDSKDSTYSLSSTLTLSKADYEKHKVYACEVTHQGLSSPVTKSFNRGEC
With B1, the “50% inhibitory concentration (elastase inhibitory activity)” value (from here on “50% inhibitory concentration”) in test [1] was determined as 11.6 µg/mL.

B2: F1024S-SLPI(D1D2) (antibody)
heavy: QIQLVQSGPELKKPGESVKISCKASGYTFTDYAMNWVKQAPGNGLKWMGWINTQTGKPTYADDFKQRFVFSLETSASTAYLQINNLNIEDTATYFCTRSTFYYSSYIYGWYFDFWGPGTMVTVSSASTKGPSVFPLAPCSRSTSESTAALGCLVKDYFPEPVTVSWNSGALTSGVHTFPAVLQSSGLYSLSSVVTVPSSSLGTKTYTCNVDHKPSNTKVDKRVESKYGPPGPSGPAPEFLGGPSVFLFPPKPKDTLMISRTPEVTCVVVDVSQEDPEVQFNWYVDGVEVHNAKTKPREEQFNSTYRVVSVLTVLHQDWLNGKEYKCKVSNKGLPSSIEKTISKAKGQPREPQVYTLPPSQEEMTKNQVSLTCLVKGFYPSDIAVEWESNGQPENNYKTTPPVLDSDGSFFLYSRLTVDKSRWQEGNVFSCSVMHEALHNHYTQKSLSLSLGKGSGKSFKAGVCPPKKSAQCLRYKKPECQSDWQCPGKKRCCPDTCGIKCLDPVDTPNPTRRKPGKCPVTYGQCLMLNPPNFCEMDGQCKRDLKCCMGMCGKSCVSPVKA
light: B1 light
Regarding B2, in test [1], the “50% inhibitory concentration” value amounted to 22.5 µg/mL.

B3: F1024S-D2(3) (antibody)
heavy: QIQLVQSGPELKKPGESVKISCKASGYTFTDYAMNWVKQAPGNGLKWMGWINTQTGKPTYADDFKQRFVFSLETSASTAYLQINNLNIEDTATYFCTRSTFYYSSYIYGWYFDFWGPGTMVTVSSASTKGPSVFPLAPCSRSTSESTAALGCLVKDYFPEPVTVSWNSGALTSGVHTFPAVLQSSGLYSLSSVVTVPSSSLGTKTYTCNVDHKPSNTKVDKRVESKYGPPGPSGPAPEFLGGPSVFLFPPKPKDTLMISRTPEVTCVVVDVSQEDPEVQFNWYVDGVEVHNAKTKPREEQFNSTYRVVSVLTVLHQDWLNGKEYKCKVSNKGLPSSIEKTISKAKGQPREPQVYTLPPSQEEMTKNQVSLTCLVKGFYPSDIAVEWESNGQPENNYKTTPPVLDSDGSFFLYSRLTVDKSRWQEGNVFSCSVMHEALHNHYTQKSLSLSLGKGSTVAACNLPIVSGPCRAFIKLWAFDAVKGKCVLFPYGGCQGNGNKFDSEKECREYCGVPGDGDEELLRFSN
light: B1 light
In the case of B3, the “50% inhibitory concentration” value in test [1] worked out at 8.9 µg/mL. In the test with human CD14, the “IC50 for inhibition of LPS-induced E-Selectin expression in HUVEC” value amounted to 0.43 µg/mL, the “IC50 for inhibition of LPS-induced IL-6 production in HUVEC” value came out at 0.38 µg/mL, the “IC50 for inhibition of LPS-induced TNF-α production in human peripheral blood mononuclear cells” value is 0.58 µg/mL and the “IC50 for inhibition of LPS-induced procoagulant activity (PCA) in human peripheral blood mononuclear cells” value was determined as 20.9 µg/mL.

B4: F1024S-SLPI(D2) (antibody)
heavy: QIQLVQSGPELKKPGESVKISCKASGYTFTDYAMNWVKQAPGNGLKWMGWINTQTGKPTYADDFKQRFVFSLETSASTAYLQINNLNIEDTATYFCTRSTFYYSSYIYGWYFDFWGPGTMVTVSSASTKGPSVFPLAPCSRSTSESTAALGCLVKDYFPEPVTVSWNSGALTSGVHTFPAVLQSSGLYSLSSVVTVPSSSLGTKTYTCNVDHKPSNTKVDKRVESKYGPPGPSGPAPEFLGGPSVFLFPPKPKDTLMISRTPEVTCVVVDVSQEDPEVQFNWYVDGVEVHNAKTKPREEQFNSTYRVVSVLTVLHQDWLNGKEYKCKVSNKGLPSSIEKTISKAKGQPREPQVYTLPPSQEEMTKNQVSLTCLVKGFYPSDIAVEWESNGQPENNYKTTPPVLDSDGSFFLYSRLTVDKSRWQEGNVFSCSVMHEALHNHYTQKSLSLSLGKGSRRKPGKCPVTYGQCLMLNPPNFCEMDGQCKRDLKCCMGMCGKSCVSPVKA
light: B1 light
Regarding B4, the “50% inhibitory concentration” value in test [1] was found to be 26.9 µg/mL.

B5: modified F1024S-D2(R11S/R15T/Q19K/Y46D) (antibody)
heavy: B3 heavy with R469T
light: B1 light
Consider B5, for which, in test [1], the “50% inhibitory concentration” value turned out to be 4.43 µg/mL.

B6: polypeptide Q19K/Y46D (other)
chain: AVLPQEEEGSGMAACNLPIVRGPCRAFIKLWAFDAVKGKCVLFPYGG
As for B6, in the test with Human Factor Xa, the FXa-inhibiting activity is ~20 times that of polypeptide AN68.

B7: polypeptide R11E/Q19K/Y46E (other)
chain: B6 chain with R21E
On to B7, for which the FXa-inhibiting activity in the test with Human Factor Xa was ~13 times that of polypeptide AN68.

B8: polypeptide R11Q/Q19K/Y46D (other)
chain: B6 chain with R21Q
Consider B8, for which, in the test with Human Factor Xa, the FXa-inhibiting activity was ~20 times that of polypeptide AN68.

B9: polypeptide R11L/Q19K/Y46D (other)
chain: B6 chain with R21L
As for B9, the FXa-inhibiting activity with Human Factor Xa is ~16 times that of polypeptide AN68.

B10: polypeptide R11D/Q19K/Y46D (other)
chain: B6 chain with R21D
In the case of B10, the FXa-inhibiting activity with Human Factor Xa was ~5 times that of polypeptide AN68.

B11: polypeptide Q19R/Y46D (other)
chain: B6 chain with K29R
As to B11, the FXa-inhibiting activity with Human Factor Xa was ~18 times that of polypeptide AN68.

B12: polypeptide Q19R (other)
chain: AACNLPIVRGPCRAFIRLWAFDAVKGKCVLFPYGGCQGNGNKFYSEK
Take B12: the FXa-inhibiting activity with Human Factor Xa is ~6 times that of polypeptide AN68.

B13: polypeptide Q19R/Y46E (other)
chain: B12 chain with Y44E
Take B13: the FXa-inhibiting activity with Human Factor Xa was ~10 times that of polypeptide AN68.

B14: polypeptide R11E/Y46E (other)
chain: B12 chain with R9E, R17Q, Y44E
For B14, in the test with Human Factor Xa, the FXa-inhibiting activity was ~3 times that of polypeptide AN68.

B15: polypeptide Q19K/Y46E (other)
chain: B12 chain with R17K, Y44E
With B15, the FXa-inhibiting activity with Human Factor Xa is ~10 times that of polypeptide AN68.
